From US20050113304A1

Target: Botulinum toxin B (UniProt P10844)
Test: cell-based or functional assay

| Substance | inhibition of BttxB endoprotease activity (cleavage of VAMP2 55-94, RP-HPLC) | inhibition of BttxB activity relative to B-I (% as effective as B-I) |
| --- | --- | --- |
| Buforin I (peptide) | 1000 nM |  |
| Buforin II (peptide) |  | 25 |
